Measurements taken from US20170349663A1 (Memorial Sloan Kettering, published 2017).

Target: full-length human EphA2 protein on cells (human, UniProt P29317 24-976)
Test: cell-based or functional assay

Sequence of full-length human EphA2 protein on cells (P29317 24-976): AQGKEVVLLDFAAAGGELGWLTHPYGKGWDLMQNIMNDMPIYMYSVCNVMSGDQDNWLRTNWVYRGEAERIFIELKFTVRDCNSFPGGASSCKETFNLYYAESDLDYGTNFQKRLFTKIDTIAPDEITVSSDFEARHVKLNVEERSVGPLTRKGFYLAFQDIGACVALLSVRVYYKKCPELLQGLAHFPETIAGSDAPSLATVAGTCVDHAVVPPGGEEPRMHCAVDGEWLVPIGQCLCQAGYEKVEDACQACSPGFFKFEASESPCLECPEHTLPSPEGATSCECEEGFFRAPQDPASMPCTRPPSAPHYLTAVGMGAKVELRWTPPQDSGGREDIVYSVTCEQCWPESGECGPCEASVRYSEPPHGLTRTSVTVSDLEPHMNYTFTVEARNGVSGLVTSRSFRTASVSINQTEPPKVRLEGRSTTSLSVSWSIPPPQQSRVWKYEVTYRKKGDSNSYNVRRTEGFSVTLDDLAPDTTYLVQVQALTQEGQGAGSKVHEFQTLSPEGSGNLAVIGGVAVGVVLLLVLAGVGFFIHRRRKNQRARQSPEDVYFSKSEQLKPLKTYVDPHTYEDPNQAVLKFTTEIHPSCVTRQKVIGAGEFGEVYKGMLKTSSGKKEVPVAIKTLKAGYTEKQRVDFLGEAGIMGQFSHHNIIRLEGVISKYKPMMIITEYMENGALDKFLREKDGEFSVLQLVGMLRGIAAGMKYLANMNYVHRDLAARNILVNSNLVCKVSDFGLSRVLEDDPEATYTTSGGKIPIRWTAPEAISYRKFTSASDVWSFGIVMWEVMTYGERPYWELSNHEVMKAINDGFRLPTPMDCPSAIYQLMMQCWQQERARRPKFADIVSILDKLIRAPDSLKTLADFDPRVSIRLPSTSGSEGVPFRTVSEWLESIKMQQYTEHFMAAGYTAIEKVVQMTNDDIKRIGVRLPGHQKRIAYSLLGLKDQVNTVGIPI

B1: anti-EphA2 scFv antibody D2, monomeric scFv-6xHis (scFv)
scFv: EIVLTQSPGTLSLSPGERATLSCRASQSVSSSNLAWYQQKPGQAPRLLIYGASSRATGVPDRFSGSGSGTDFTLTISRLEPEDFAVYYCQQSSSYPWTFGQGTKVEIKRTGGGGSGAGGSGGGGTGGGGSEVQLLESGGGLVQPGGSLRLSCAASGFTFSRYWMHWVRQAPGKGLEWVSSISPYDGETNYADSVKGRFTISRDNSKNTLYLQMNSLRAEDTAVYYCARISEWYNWAVDVFDYWGQGTLVTVSSHHHHHH
  decrease in cell number after 72 hours in culture relative to vehicle control treatment, 0.5 ug, EphA2-high AML cells: 52.6%
  decrease in cell number after 72 hours in culture relative to vehicle control treatment, 1.0 ug, EphA2-high AML cells: 99.3%
